{"source": "patent US20180155411A1", "binders": {"B1": {"name": "mAb #49 (antibody, V domains shown)", "VH": "DVQLVESGGGLVQPGGSVRLSCSASRFTFSNYAMYWVRQAPGKGLEYVSSISSDGGSTYYAESVKGRFTISRDNSKNTLYLQMRSLRAEDAAVYYCVTDVLRLPYSTGWSPGDFIYWGQGTLVTVSS", "VL": "DIQMTQSPSILYASVGDRVTITCRASQSVSSWLAWYQQKPGKVPKLLIYQASTLENGVPSRFSGSGSGTEFILTISSLQPDDFATYYCQHYNVLWTFGQGTKVEIK"}, "B2": {"name": "mAb #46 (antibody, V domains shown)", "VH": "QVQLQESGPGLVKPSETLSLTCTVSGGSINSYYWSWIRQSPGKGLEWIGYVFYSGITKYNPSLQSRVTISLDMGKNQFSLKLTSVNAADAAVYYCARNFPSYTPDWFFDLWGRGTLVTVSS", "VL": "EIVLTQSPGTLSLSPGERATLSCRASQSVSSDNLAWYQQKPGQPPRLLIYGASHRATGIPDRFSGSGSGTDFTLTISRLEPEDFAVYHCQQYGSSPLTFGGGTKVEIK"}, "B3": {"name": "mAb #57 (antibody, V domains shown)", "VH": "QVQLVESGGGVVQSGRSLRLSCAASGFTFRSYAMHWVRQAPGKGLEWVADLSLDGSHKYADSVRGRFTISSDSSKNTVYLQMNSLRTEDTAIYYCARAAGIMVAGTFLTEFYFDYWGQGTLVTVSS", "VL": "QSVLTQPPSVSGAPGQRVTISCTGSSSNIGAGYDVHWYQQLPGTAPKLLIYGNIKRPSGVPDRFSGSKSGTSASLAITGLQTEDEADYYCQSYDSSLSAYYVFGTGTRVTVL"}}, "key": {"[1]": {"target": "VP4 of rotavirus strain 116E (G9P[11]) (human rotavirus), Q99706", "sequence (Q99706 22-377)": "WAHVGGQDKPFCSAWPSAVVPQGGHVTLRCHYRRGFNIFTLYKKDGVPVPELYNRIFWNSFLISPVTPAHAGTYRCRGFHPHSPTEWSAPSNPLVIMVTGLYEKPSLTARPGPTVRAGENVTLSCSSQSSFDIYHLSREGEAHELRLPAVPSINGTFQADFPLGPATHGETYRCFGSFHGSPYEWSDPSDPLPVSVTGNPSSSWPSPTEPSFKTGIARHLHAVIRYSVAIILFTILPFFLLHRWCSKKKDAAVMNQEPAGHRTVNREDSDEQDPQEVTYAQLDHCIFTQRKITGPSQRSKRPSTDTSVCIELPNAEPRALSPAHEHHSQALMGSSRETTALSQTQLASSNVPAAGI", "assay": "cell-based or functional assay"}, "[2]": {"target": "VP7 of rotavirus strain 116E (G9P[11]) (human rotavirus), Q99706", "sequence (Q99706 22-377)": "as above", "assay": "cell-based or functional assay"}}, "data": [{"binder": "B1", "values": [{"measurement": "in vitro neutralization", "setting": "[1]", "result": "> 625", "unit": "ng/mL"}]}, {"binder": "B2", "values": [{"measurement": "in vitro neutralization", "setting": "[2]", "result": "> 625", "unit": "ng/mL"}]}, {"binder": "B3", "values": [{"measurement": "in vitro neutralization", "setting": "[2]", "result": "> 625", "unit": "ng/mL"}]}]}
